Two molecules from PMC4792071 (The Journal of Cell Biology, 2016) can be followed below.

One assay addresses T1, Arl2^T30N-Venus (Drosophila melanogaster, UniProt Q06849 1-184, T30N).
T1 sequence (looked up): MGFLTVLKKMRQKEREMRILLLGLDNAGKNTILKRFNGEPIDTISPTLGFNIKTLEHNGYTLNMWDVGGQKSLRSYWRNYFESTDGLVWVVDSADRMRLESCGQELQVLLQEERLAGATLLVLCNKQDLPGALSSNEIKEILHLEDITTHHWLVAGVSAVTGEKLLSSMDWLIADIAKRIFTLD
Nature of the assay: co-IP.

In the next assay the target is T2, Arl2^Q70L-Venus (Drosophila melanogaster, UniProt Q06849 1-184, Q70L).
T2 sequence (looked up): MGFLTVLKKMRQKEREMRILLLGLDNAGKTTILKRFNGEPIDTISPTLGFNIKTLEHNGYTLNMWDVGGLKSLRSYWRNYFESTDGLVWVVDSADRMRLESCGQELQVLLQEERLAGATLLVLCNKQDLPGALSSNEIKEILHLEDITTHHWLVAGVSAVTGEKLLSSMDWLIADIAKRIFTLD
Nature of the assay: co-IP.

B1: HA-TBCE (natural protein, Drosophila melanogaster, UniProt A1Z6J5 1-523, looked up)
chain: MVGIIDEVQLFYPLGTRIKIGDNYGTVRYVGEVSGHMGSWLGIEWDDGLRGKHNGIVDGKRYFQTQTPTGGSFIRPGKVGPCATLEDAARERYLNYDSSNVDESLIREAQASLQASLFEVVGMDKIARKQSKFEQLEEVSVDQTPVNAAGYLKELTHLTTLNVSHTLIWNWEIVASIAQQLPSLTNLNLSSNRLVLPTSSQITELEPSFRQLKRINLRSCGFSDWKDVMHTALLWPNILSLGLQENSLGQLAEVDRTKIFKQLHELDLHRTNIMDFDQVTKLGNLTTLRLLNIMENGIEEIKLPDCDSQEKLNIFVSLEQLNLLHNPIWNEADAFNELDKLPQLKRLSKTPHLKSNFDEMFSKAVASIASLQFINKAEVTAEQRRGAEYDIWKKYALDWMQATQGGTDSLREFCRRHRTYPLLVKKYGSPADFVPRSQAKQSNLINVSIRHQLTGETWEKKVPRMITVQTLQGLVMKRFRLSGDVPQLCYVDALHPDLVVPLDNNAKTLDFYSVQEHDTVLVQ
As for B1, in the assay with Arl2^T30N-Venus, the “fold amount co-precipitated, against Arl2^Q70L-Venus” value is around 3.1 fold.

B2: HA-TBCC (natural protein, Drosophila melanogaster, UniProt Q7KU40 1-355, looked up)
chain: MEGDAENRKDQILERLNKRNKDRQNYLDVKSELRSKETVQNEGVDYFYQTFSQKTMDIEQRLKDVQCGDGQPTDLARNFADITVEIQDLQRYLTASTMFLPDFKIKSCQNILNTLTAVSDETRQRLLPKKKFGFSGKKTVTKPKVPPNKDIVDAKLSKVPEKLGSNFTWTIANRTNEHIVLDSAKVNGQDITISKLNHCLVELQGHPGSVQVSRASKCTLLCGPIARSFFAENLEDCTLSIACQQLRLHSSRSIRIYMHVTCRAIIEDCKSIEIGEYNYDYSKLEADYLASGLNKAQNNYTDVADFNWLSPDVPSPNWSLLKDYPDPNWNALRRDFIANNHNSELKQDVKDISII
In the case of B2, the “fold amount co-precipitated, against Arl2^T30N-Venus” value with Arl2^Q70L-Venus was around 9.6 fold.
